Results on two variants are retold here after IntAct's records for PubMed 15226396.

B1: Tyrosine-protein phosphatase non-receptor type 1 (Gallus gallus (Chicken)), O13016 (parent)
chain: MEIEKEFHRLDQAASWAAIYQDIRHEASDFPCKVAKHPRNKNRNRYRDVSPFDHSRIKLNQGDNDYINASLIKMEEAQRSYILTQGPLPNTCGHFWEMVWEQKSRGVVMLNRVMEKGSIKCAQYWPRKEEKEMFFEDTNLKLTLISEDIKSYYTVRQLELENLTTQETREILHFHYTTWPDFGVPESPASFLNFLFKVRESGSLNPEYGPVVVHCSAGIGRSGTFCLVDTCLLLMDKRKDPSSVDVKQVLLEMRKYRMGLIQTADQLRFSYLAVIEGAKFIMGDASVQEQWKELSNEDLDPPPEHTPPPPRPPKRTSEMHNGRMHEHAEFFPKHQVVEEEIRCSVSTAEETVSDGRVFSSVPLITDSTSQDTEIRRRTVGENLHVTAHKEESKSESVEEDDENMMTTWKPFLVNICMFTFLTAGAYLCYRVCFH

In this test the parent is B1. The settings on record: with fer_human FER.
As for Y152F, the “effect of a mutation on the interaction” value is given as “disrupting interaction”.
With C215S, the “effect of a mutation on the interaction” value is “disrupting interaction”.
